Positions count from the first letter of the chain named. Read-outs that look alike come from different tables or passages of the source.
B1: h4A11.v1 (antibody, human IgG1, kappa, N297G, V domains shown)
VH: EQQLVESGGGLVQPGGSLRLSCAVSGFSLSSYTVNWVRQAPGKGLEWIGYISYGGSAYYASWANGRFTISKDSAKNSVYLQMNSLRAEDTAVYFCARHMQVGGAPTGSMAAFDPWGPGTLVTVSS
VL: DAVLTQSPDSLAVSLGERATINCQSSQSVYNNNYLSWFQQKPGQPPKLLIYGASTLTSGVPDRFSGSGSGTDFTLTISSLQAEDVAVYYCAGGYSGSSDKYAFGGGTKVEIKR
B2: h4A11.v2 (antibody, human IgG1, kappa, N297G, V domains shown)
VH: B1 VH
VL: DAQLTQSPSSLSASVGDRVTITCQSSQSVYNNNYLSWFQQKPGKPPKLLIYGASTLTSGVPSRFSGSGSGTDFTLTISSLQPEDFATYYCAGGYSGSSDKYAFGGGTKVEIKR
B3: h4A11.v3 (antibody, human IgG1, kappa, N297G, V domains shown)
VH: EQQLQESGPGLVKPSETLSLTCTVTGFSLSSYTVNWVRQPAGKGLEWIGYISYGGSAYYASWANGRFTISKDSSKNQVSLKLSSVTAADTAVYFCARHMQVGGAPTGSMAAFDPWGPGTLVTVSS
VL: B1 VL
B4: h4A11.v6 (antibody, human IgG1, kappa, N297G, V domains shown)
VH: B1 VH
VL: DAVLTQTPLSSPVTLGQPASISCQSSQSVYNNNYLSWFQQRPGQPPRLLIYGASTLTSGVPDRFSGSGAGTDFTLKISRVEAEDVGVYYCAGGYSGSSDKYAFGGGTKVEIKR
B5: h4A11.v5 (antibody, human IgG1, kappa, N297G, V domains shown)
VH: B1 VH
VL: EAVLTQSPGTLSLSPGERATLSCQSSQSVYNNNYLSWFQQKPGQPPRLLIYGASTLTSGVPDRFSGSGSGTDFTLTISRLEPEDFAVYYCAGGYSGSSDKYAFGGGTKVEIKR
B6: h4A11.v4 (antibody, human IgG1, kappa, N297G, V domains shown)
VH: B3 VH
VL: B2 VL
B7: h4A11.v8 (antibody, V domains shown)
VH: B3 VH
VL: DAVLTQTPLSSPVTLGQPASISCQSSQSVYNNNYLSWFQQRPGQPPRLLIYGASTLTSGVPDRFSGSGAGTDFTLKISRVEAEDVGVYYCAGGYSGSSDKYAFGGGTKVEIK
B8: h4A11.v7.16 (antibody, human IgG1, kappa, N297G, V domains shown)
VH: B3 VH with Q2V, V37I, F67V, S73T, V78F, P117Q
VL: B5 VL with A2I, P45A, V60I
B9: h2A10.v2.1 (antibody, human IgG1, kappa, N297G)
heavy: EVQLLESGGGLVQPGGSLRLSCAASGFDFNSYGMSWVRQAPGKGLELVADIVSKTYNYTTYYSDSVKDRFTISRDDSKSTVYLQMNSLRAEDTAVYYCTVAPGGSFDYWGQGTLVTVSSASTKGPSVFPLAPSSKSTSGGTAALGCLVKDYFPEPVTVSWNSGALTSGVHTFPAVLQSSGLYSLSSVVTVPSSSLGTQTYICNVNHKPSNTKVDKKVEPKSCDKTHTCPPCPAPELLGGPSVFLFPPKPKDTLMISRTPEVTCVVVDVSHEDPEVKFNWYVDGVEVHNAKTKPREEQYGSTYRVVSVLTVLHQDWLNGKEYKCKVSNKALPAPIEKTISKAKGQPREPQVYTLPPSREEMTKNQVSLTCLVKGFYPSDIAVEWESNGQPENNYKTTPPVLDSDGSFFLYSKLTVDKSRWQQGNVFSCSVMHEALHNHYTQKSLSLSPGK
light: DIQMTQSPSSLSASVGDRVTITCRASQSVSISRFNLMHWYQHKPGKQPKLLIYRASNLASGIPSRFSGSGSGTDFTLTISSLQPEDFATYYCQHSRESPWTFGGGTKVEIKRTVAAPSVFIFPPSDEQLKSGTASVVCLLNNFYPREAKVQWKVDNALQSGNSQESVTEQDSKDSTYSLSSTLTLSKADYEKHKVYACEVTHQGLSSPVTKSFNRGEC
B10: h2A10.v2.2 (antibody, human IgG1, kappa, N297G, V domains shown)
VH: EVQLLESGGGLVQPGGSLRLSCAASGFDFNSYGMSWVRQAPGKGLELVADIVSKTYNYTTYYSDSVKDRFTISRDDSKSTVYLQMNSLRAEDTAVYYCTVAPGGSFDYWGQGTLVTVSS
VL: DIQLTQSPSSLSASVGDRVTITCRASQSVSISRFNLMHWYQQKPGKQPKLLIYRASNLASGIPSRFSGSGSGTDFTLTISSLQPEDFATYYCQHSRESPWTFGGGTKVEIKR
B11: h2A10.v2.4 (antibody, human IgG1, kappa, N297G, V domains shown)
VH: B10 VH
VL: B10 VL with Q42H, I62V
B12: h2A10.v2.6 (antibody, human IgG1, kappa, N297G, V domains shown)
VH: B10 VH with A49S
VL: B10 VL with Q42H
B13: h2A10.v2.9 (antibody, human IgG1, kappa, N297G, V domains shown)
VH: B10 VH with V81L
VL: B10 VL with Q42H
B14: h2A10.v2.3 (antibody, human IgG1, kappa, N297G, V domains shown)
VH: B10 VH
VL: B10 VL with Q42H, Q47A
B15: h2A10.v2.8 (antibody, human IgG1, kappa, N297G, V domains shown)
VH: B10 VH with S79N
VL: B10 VL with Q42H

What was measured:
[1] = molecular target: T1, human TGFβ2, mature receptor-binding domain (human, UniProt P09858 303-414 (pig entry), The mature TGFβ2 is a disulfide-linked homodimer of this 112-residue chain. The 4A11 epitope spans both monomers (p-1207).); test: cell-based or functional assay
T1 sequence: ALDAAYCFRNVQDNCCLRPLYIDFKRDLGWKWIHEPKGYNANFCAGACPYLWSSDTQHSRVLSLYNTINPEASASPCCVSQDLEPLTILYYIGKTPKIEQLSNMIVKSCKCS

[2] = molecular target: T2, human TGFβ1, mature receptor-binding domain (human, UniProt P01137 279-390); test: cell-based or functional assay
[3] = molecular target: T3, human TGFβ3, mature dimeric form (human, UniProt P10600 301-412); test: cell-based or functional assay
T3 sequence: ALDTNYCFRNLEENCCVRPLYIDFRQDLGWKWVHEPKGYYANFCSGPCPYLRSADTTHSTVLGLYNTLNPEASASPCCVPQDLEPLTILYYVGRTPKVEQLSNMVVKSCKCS

[4] = molecular target: T1, human TGFβ2, mature receptor-binding …; test: BIAcore T200
Procedure: (§1) For binding affinity determinations of all humanized 2A10 antibodies, Surface Plasmon Resonance (SPR) measurement with a BIAcore™-T200 instrument was used. Briefly, series S CM5 biosensor chip with protein A was first applied to capture each humanized 2A10 variant to achieve approximately 100 response units (RU) on each flow cell, following by injection of 3-fold serial dilutions of human TGFβ1, TGFβ2 or TGFβ3 (0.02 nM to 5 nM) in HBS-EP buffer (0.01M HEPES pH 7.4, 0.15M NaCl, 3 mM EDTA and 0.05% v/v surfactant P20) at 25° C. with a flow rate of 50 μl/min for kinetics measurement. Association rates (ko.) and dissociation rates (koff) were calculated using a simple one-to-one Langmuir binding model (BIAcore T200 evaluation software version 2.0) to determine the equilibrium dissociation constant (KD), which was calculated as the ratio koff/kₒₙ.
(§2) Binding affinity determinations of all humanized 4A11 antibodies were performed using SPR measurement with a BIAcore™-T200 instrument, as described above in Example 6 ([…]).

[5] = molecular target: T3, human TGFβ3, mature dimeric form; test: BIAcore T200
Procedure: as §1, §2

[6] = molecular target: T1, human TGFβ2, mature receptor-binding …; test: BIAcore T200; remark: listed apart in the source
Procedure: as §1, §2

[7] = molecular target: T3, human TGFβ3, mature dimeric form; test: BIAcore T200; remark: listed apart in the source
Procedure: as §1, §2

[8] = molecular target: T1, human TGFβ2, mature receptor-binding …; test: cell-based or functional assay; remark: listed apart in the source
[9] = molecular target: T2, human TGFβ1, mature receptor-binding …; test: cell-based or functional assay; remark: listed apart in the source
[10] = molecular target: T3, human TGFβ3, mature dimeric form; test: cell-based or functional assay; remark: listed apart in the source
[11] = molecular target: T1, human TGFβ2, mature receptor-binding …; test: BIAcore T200; remark: listed apart in the source
Procedure: as §1

[12] = molecular target: T3, human TGFβ3, mature dimeric form; test: BIAcore T200; remark: listed apart in the source
Procedure: as §1

[13] = molecular target: T1, human TGFβ2, mature receptor-binding …; test: cell-based or functional assay; remark: listed apart in the source
[14] = molecular target: T2, human TGFβ1, mature receptor-binding …; test: cell-based or functional assay; remark: listed apart in the source
[15] = molecular target: T3, human TGFβ3, mature dimeric form; test: cell-based or functional assay; remark: listed apart in the source

T2 sequence (P01137 279-390 limits assumed): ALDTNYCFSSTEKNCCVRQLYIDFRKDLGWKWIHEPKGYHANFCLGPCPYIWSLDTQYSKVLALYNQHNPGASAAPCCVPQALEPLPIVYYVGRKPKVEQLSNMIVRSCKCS

Row | Binder | HEKBlue TGFβ blocking IC50 [1] | HEKBlue TGFβ blocking IC50 [2] | HEKBlue TGFβ blocking IC50 [3] | Kd [4] | Kd [5] | Kd [11] | Kd [12] | HEKBlue TGFβ blocking IC50 [13] | HEKBlue TGFβ blocking IC50 [14] | HEKBlue TGFβ blocking IC50 [15] | other results
1 | B1 | > 200 nM | > 200 nM | > 200 nM | 0.0046 nM | 0.0144 nM |  |  |  |  |  | 
2 | B2 | > 200 nM | > 200 nM | > 200 nM | 0.0014 nM | 0.0133 nM |  |  |  |  |  | 
3 | B3 | 3.9 nM | > 200 nM | 0.23 nM | 0.0096 nM | 0.0121 nM |  |  |  |  |  | 
4 | B4 | > 200 nM | > 200 nM | 6.7 nM | 0.0084 nM | 0.0125 nM |  |  |  |  |  | 
5 | B5 | > 200 nM | > 200 nM | 1.4 nM | 0.0121 nM | 0.0139 nM |  |  |  |  |  | 
6 | B6 | 1.9 nM | > 200 nM | 0.08 nM | 0.01 nM | 0.0101 nM |  |  |  |  |  | 
7 | B7 | > 200 nM | > 200 nM | 0.66 nM | 0.0082 nM | 0.0141 nM |  |  |  |  |  | 
8 | B8 |  |  |  |  |  |  |  |  |  |  | Kd [6]: 0.0049 nM; Kd [7]: 0.0066 nM; HEKBlue TGFβ blocking IC50 [8]: 0.09 nM; HEKBlue TGFβ blocking IC50 [9]: > 200 nM; HEKBlue TGFβ blocking IC50 [10]: 0.13 nM
9 | B9 |  |  |  |  |  | 0.238 nM | 0.0031 nM | > 200 nM | > 200 nM | 0.01 nM | 
10 | B10 |  |  |  |  |  | 0.124 nM | 0.0012 nM | > 200 nM | > 200 nM | 0.01 nM | 
11 | B11 |  |  |  |  |  | 0.19 nM | 0.0021 nM | > 200 nM | > 200 nM | 0.01 nM | 
12 | B12 |  |  |  |  |  | 0.249 nM | 0.0015 nM | > 200 nM | > 200 nM | 0.01 nM | 
13 | B13 |  |  |  |  |  | 0.768 nM | 0.0007 nM | > 200 nM | > 200 nM | 0.01 nM | 
14 | B14 |  |  |  |  |  | 0.242 nM | 0.0015 nM | > 200 nM | > 200 nM | 0.01 nM | 
15 | B15 |  |  |  |  |  | 0.365 nM | 0.0012 nM | > 200 nM | > 200 nM | 0.01 nM | 
